{"source": "patent US20050287527"}
{"substance": "human α-thrombin", "values": [{"measurement": "proteolytic cleavage of the peptide by thrombin", "setting": "GFNPRHL", "result": "proteolytically cleaved after the arginine residues in the presence of the human thrombin"}, {"measurement": "proteolytic cleavage of the peptide by thrombin", "setting": "GPNPRHL", "result": "proteolytically cleaved after the arginine residues in the presence of the human thrombin"}, {"measurement": "proteolytic cleavage of the peptide by thrombin", "setting": "GVDPRHL", "result": "proteolytically cleaved after the arginine residues in the presence of the human thrombin"}, {"measurement": "proteolytic cleavage of the peptide by thrombin", "setting": "GFSARHL", "result": "proteolytically cleaved after the arginine residues in the presence of the human thrombin"}, {"measurement": "proteolytic cleavage of the peptide by thrombin", "setting": "GLDPRHL", "result": "proteolytically cleaved after the arginine residues in the presence of the human thrombin"}]}
